{
  "source": "IntAct's records for PubMed 17005671",
  "parents": {"B1": {"name": "Tyrosine-protein kinase-interacting protein (Saimiriine herpesvirus 2 (strain 488) (SaHV-2)), P22575 (parent)", "chain": "MANEGEEIELTEFPETEKERKDEEKLSSCSEETTNTSSSSGSDHVPVPIEVNVIIQNSSRTEDELQNSKEIELTGFQGKLSSCSEETTAPSSSYSSKQASVFIEENGDNETSTYRPQNVLTNLNSLYTTFEDARAQGKGMVRHKSEDLQSFLEKYPPDFRKPKRDLSATWDPGMPTPPLPPRPANLGERQASTVRLHVKESNCKQPRERKANERNIVKDLKRLENKINVIICLVVVILAVLLLVTVLSILHIGMKS"}},
  "key": {"lck_human LCK, P06239": {"variants_of": "B1", "conditions": "with lck_human LCK"}, "cd4_human CD4, P01730": {"variants_of": "B1", "conditions": "with cd4_human CD4, P01730"}},
  "data": [
    {"variant": "MANEGEEIELTEFPETEKERKDEEKLSSCSEETTNTSSSSGSDHVPVPIEVNVIIQNSSRTEDELQNSKEIELTGFQGKLSSCSEETTAPSSSYSSKQASVFIEENGDNETSTYRPQNVLTNLNSLYTTFEDARAQGKGMVRHKSEDLQSFLEKYPPDFRKPKRDLSATWDPGMPTAPLPPRPANLGERQASTVRLHVKESNCKQPRERKANERNIVKDLKRLENKINVIICLVVVILAVLLLVTVLSILHIGMKS", "note": "[P177A]", "values": [
      {"measurement": "effect of a mutation on the interaction", "setting": "lck_human LCK, P06239", "result": "decreasing interaction"}
    ]},
    {"variant": "MANEGEEIELTEFPETEKERKDEEKLSSCSEETTNTSSSSGSDHVPVPIEVNVIIQNSSRTEDELQNSKEIELTGFQGKLSSCSEETTAPSSSYSSKQASVFIEENGDNETSTYRPQNVLTNLNSLYTTFEDARAQGKGMVRHKSEDLQSFLEKYPPDFRKPKRDLSATWDPGMPTPPLAPRPANLGERQASTVRLHVKESNCKQPRERKANERNIVKDLKRLENKINVIICLVVVILAVLLLVTVLSILHIGMKS", "note": "[P180A]", "values": [
      {"measurement": "effect of a mutation on the interaction", "setting": "cd4_human CD4, P01730", "result": "decreasing interaction"},
      {"measurement": "effect of a mutation on the interaction", "setting": "lck_human LCK, P06239", "result": "decreasing interaction"}
    ]},
    {"variant": "MANEGEEIELTEFPETEKERKDEEKLSSCSEETTNTSSSSGSDHVPVPIEVNVIIQNSSRTEDELQNSKEIELTGFQGKLSSCSEETTAPSSSYSSKQASVFIEENGDNETSTYRPQNVLTNLNSLYTTFEDARAQGKGMVRHKSEDLQSFLEKYPPDFRKPKRDLSATWDPGMPTPALPPRPANLGERQASTVRLHVKESNCKQPRERKANERNIVKDLKRLENKINVIICLVVVILAVLLLVTVLSILHIGMKS", "note": "[P178A]", "values": [
      {"measurement": "effect of a mutation on the interaction", "setting": "cd4_human CD4, P01730", "result": "decreasing interaction"},
      {"measurement": "effect of a mutation on the interaction", "setting": "lck_human LCK, P06239", "result": "decreasing interaction"}
    ]},
    {"variant": "MANEGEEIELTEFPETEKERKDEEKLSSCSEETTNTSSSSGSDHVPVPIEVNVIIQNSSRTEDELQNSKEIELTGFQGKLSSCSEETTAPSSSYSSKQASVFIEENGDNETSTYRPQNVLTNLNSLYTTFEDARAQGKGMVRHKSEDLQSFLEKYPPDFRKPKRDLSATWDPGMATPPLPPRPANLGERQASTVRLHVKESNCKQPRERKANERNIVKDLKRLENKINVIICLVVVILAVLLLVTVLSILHIGMKS", "note": "[P175A]", "values": [
      {"measurement": "effect of a mutation on the interaction", "setting": "cd4_human CD4, P01730", "result": "decreasing interaction"},
      {"measurement": "effect of a mutation on the interaction", "setting": "lck_human LCK, P06239", "result": "decreasing interaction"}
    ]},
    {"variant": "MANEGEEIELTEFPETEKERKDEEKLSSCSEETTNTSSSSGSDHVPVPIEVNVIIQNSSRTEDELQNSKEIELTGFQGKLSSCSEETTAPSSSYSSKQASVFIEENGDNETSTYRPQNVLTNLNSLYTTFEDARAQGKGMVRHKSEDLQSFLEKYPPDFRKPKRDLSATWDPGMPTPPLPPRAANLGERQASTVRLHVKESNCKQPRERKANERNIVKDLKRLENKINVIICLVVVILAVLLLVTVLSILHIGMKS", "note": "[P183A]", "values": [
      {"measurement": "effect of a mutation on the interaction", "setting": "cd4_human CD4, P01730", "result": "decreasing interaction"},
      {"measurement": "effect of a mutation on the interaction", "setting": "lck_human LCK, P06239", "result": "decreasing interaction"}
    ]}
  ]
}
